Patent publication EP4653453A1

Target: single antigen M1 peptide segment (monkeypox virus M1 protein) (Monkeypox virus isolate MPXV_USA_2022_MA001) (UniProt M1LBP0)
Test: SPR

UniProt M1LBP0, sequence (M1LBP0 2-181 limits assumed): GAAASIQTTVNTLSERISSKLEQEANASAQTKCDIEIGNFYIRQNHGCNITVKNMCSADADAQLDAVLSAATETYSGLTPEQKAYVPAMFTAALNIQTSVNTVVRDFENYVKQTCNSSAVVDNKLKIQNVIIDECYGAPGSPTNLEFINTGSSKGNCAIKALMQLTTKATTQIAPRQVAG

neutralizing antibody 7D11
Kd: 3.3 nM
